From article PMC8563870, “Development of a nanobody-based immunoassay for the sensitive detection of fibrinogen-like protein 1” (Acta Pharmacologica Sinica, 2021)

B1: FGL1-Fc fusion protein (human fibrinogen-like protein 1 with C-terminal human IgG1 Fc and Flag tag) (Fc fusion, UniProt Q08830 23-306, looked up)
chain: LEDCAQEQMRLRAQVRLLETRVKQQQVKIKQLLQENEVQFLDKGDENTVIDLGSKRQYADCSEIFNDGYKLSGFYKIKPLQSPAEFSVYCDMSDGGGWTVIQRRSDGSENFNRGWKDYENGFGNFVQKHGEYWLGNKNLHFLTTQEDYTLKIDLADFEKNSRYAQYKNFKVGDEKNFYELNIGEYSGTAGDSLAGNFHPEVQWWASHQRMKFSTWDRDHDNYEGNCAEEDQSGWWFNRCHSANLNGVYYSGPYTAKTDNGIVWYTWHGWWYSLKSVVMKIRPND
notes: signal peptide in the construct; human fibrinogen-like protein 1 (FGL1), amino acids 1-306 of NCBI NM_004467, called full-length in the methods; the results say that the protein has 312 amino acids; A 3C protease site and a linker (GGGGS) stand between FGL1 and the Fc, and the Flag tag follows the Fc; The Fc may itself hold the dimer together; For SPR and the ELISAs the Fc was cut off with 3C …

Experiments:
LAG-3 (Homo sapiens) = LAG-3 (Homo sapiens) (UniProt P18627); conditions: cited from earlier work
[1] = molecular target: the molecule itself; experiment: SEC; Superdex 200, 20 mM Tris pH 8.0, 150 mM NaCl; FGL1-Fc after anti-Flag M2 affinity; one aggregate peak and two FGL1 peaks, the peak at approximately 66 mL taken as the homodimer

LAG-3 (Homo sapiens), sequence (P18627 23-450): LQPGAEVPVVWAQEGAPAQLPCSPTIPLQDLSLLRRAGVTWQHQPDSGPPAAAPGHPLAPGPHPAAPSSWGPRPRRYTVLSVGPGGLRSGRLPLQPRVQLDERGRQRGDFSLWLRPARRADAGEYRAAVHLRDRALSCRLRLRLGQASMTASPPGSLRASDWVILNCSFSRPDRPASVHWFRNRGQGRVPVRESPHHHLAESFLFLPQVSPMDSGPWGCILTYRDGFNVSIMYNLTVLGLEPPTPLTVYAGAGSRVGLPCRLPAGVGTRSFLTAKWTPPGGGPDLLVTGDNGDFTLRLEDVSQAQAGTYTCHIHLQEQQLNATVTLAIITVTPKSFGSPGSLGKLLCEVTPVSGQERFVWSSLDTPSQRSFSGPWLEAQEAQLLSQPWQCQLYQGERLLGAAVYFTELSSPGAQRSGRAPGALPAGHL

Molecule	Kd (LAG-3 (Homo sapiens))	stoichiometry N [1]
FGL1 (from UniProt Q08830)	1.5 nM	–
B1	–	2
